Results on one molecule are retold here after publication PMC4163015 (Cell, 2014).

The assay concerns the target T1, heterodimeric cofactor Ufd1p/Npl4p (S. cerevisiae, UniProt P53044 1-361; P33755 1-580).
T1 sequence (looked up) 1: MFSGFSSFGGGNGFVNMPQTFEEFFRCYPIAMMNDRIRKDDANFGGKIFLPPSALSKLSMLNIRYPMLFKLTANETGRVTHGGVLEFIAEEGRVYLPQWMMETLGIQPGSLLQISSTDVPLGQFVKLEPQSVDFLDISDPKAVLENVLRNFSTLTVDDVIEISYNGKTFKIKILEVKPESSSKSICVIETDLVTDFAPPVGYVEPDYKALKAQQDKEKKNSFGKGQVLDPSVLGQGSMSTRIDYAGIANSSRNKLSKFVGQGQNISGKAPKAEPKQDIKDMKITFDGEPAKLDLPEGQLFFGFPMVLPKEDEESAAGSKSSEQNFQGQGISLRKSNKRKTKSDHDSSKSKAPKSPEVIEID
T1 sequence (looked up) 2: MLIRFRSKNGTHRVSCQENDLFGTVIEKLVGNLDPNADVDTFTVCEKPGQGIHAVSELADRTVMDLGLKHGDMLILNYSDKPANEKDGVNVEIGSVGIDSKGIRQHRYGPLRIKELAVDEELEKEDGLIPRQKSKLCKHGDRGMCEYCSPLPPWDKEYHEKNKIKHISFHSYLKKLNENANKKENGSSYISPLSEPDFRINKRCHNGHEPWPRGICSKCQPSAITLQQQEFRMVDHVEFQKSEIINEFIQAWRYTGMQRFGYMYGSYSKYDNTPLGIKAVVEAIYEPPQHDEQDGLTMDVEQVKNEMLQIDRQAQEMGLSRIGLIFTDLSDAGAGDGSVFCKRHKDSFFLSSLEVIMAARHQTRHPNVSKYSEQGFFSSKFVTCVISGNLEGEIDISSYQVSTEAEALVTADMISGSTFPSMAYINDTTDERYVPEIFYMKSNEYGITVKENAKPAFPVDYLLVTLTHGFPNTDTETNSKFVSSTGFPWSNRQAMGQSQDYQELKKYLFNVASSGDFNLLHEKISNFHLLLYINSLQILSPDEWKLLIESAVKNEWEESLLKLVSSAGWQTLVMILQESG
The assay can be described thus: SEC.

B1: Cdc48p ATPase (enzyme, S. cerevisiae, UniProt P25694 1-835, looked up)
chain: MGEEHKPLLDASGVDPREEDKTATAILRRKKKDNMLLVDDAINDDNSVIAINSNTMDKLELFRGDTVLVKGKKRKDTVLIVLIDDELEDGACRINRVVRNNLRIRLGDLVTIHPCPDIKYATRISVLPIADTIEGITGNLFDVFLKPYFVEAYRPVRKGDHFVVRGGMRQVEFKVVDVEPEEYAVVAQDTIIHWEGEPINREDEENNMNEVGYDDIGGCRKQMAQIREMVELPLRHPQLFKAIGIKPPRGVLMYGPPGTGKTLMARAVANETGAFFFLINGPEVMSKMAGESESNLRKAFEEAEKNAPAIIFIDEIDSIAPKRDKTNGEVERRVVSQLLTLMDGMKARSNVVVIAATNRPNSIDPALRRFGRFDREVDIGIPDATGRLEVLRIHTKNMKLADDVDLEALAAETHGYVGADIASLCSEAAMQQIREKMDLIDLDEDEIDAEVLDSLGVTMDNFRFALGNSNPSALRETVVESVNVTWDDVGGLDEIKEELKETVEYPVLHPDQYTKFGLSPSKGVLFYGPPGTGKTLLAKAVATEVSANFISVKGPELLSMWYGESESNIRDIFDKARAAAPTVVFLDELDSIAKARGGSLGDAGGASDRVVNQLLTEMDGMNAKKNVFVIGATNRPDQIDPAILRPGRLDQLIYVPLPDENARLSILNAQLRKTPLEPGLELTAIAKATQGFSGADLLYIVQRAAKYAIKDSIEAHRQHEAEKEVKVEGEDVEMTDEGAKAEQEPEVDPVPYITKEHFAEAMKTAKRSVSDAELRRYEAYSQQMKASRGQFSNFNFNDAPLGTTATDNANSNNSAPSGAGAAFGSNAEEDDDLYS
Take B1: the binding result was “binds”.
